± gives the standard deviation of the averaged measurements.

This passage reports switch fluorescence ratio results from the supplement of paper PMC10126150.

The test system of the series is ATP. In words: switch fluorescence ratio, 500 uM ATP over buffer (Cy3 cluster intensity, sum of 5 cycles each) (fold (ratio)); higher = stronger signal-on switching upon ATP binding; sequences stand for … in TCGTCGGCAGCGTCAGATGTGTATAAGAGACAGTTTTTTTTTTTTTTTTTTTTTTTTT…TC. Conditions: aptamer strand: ATP DNA aptamer (quencher-CACCTGGGGGAGTATTGCGGAGGAAGG + anchor), 100 nM annealed; ATP concentration: 500 uM. The gist of the method:
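Between each of five buffer/ATP cycles, the flow-cell was stripped with NaOH and re-annealed. Each cycle imaged Cy3-labelled switching-strand clusters, annealed to 100 nM quencher-labelled ATP aptamer on a modified Illumina MiSeq flow-cell, first in selection buffer and then after 15 min with 500 uM ATP at 22 °C. The fluorescence ratio is summed target-cycle over summed buffer-cycle Cy3 intensity per cluster, averaged per switch-domain sequence, with clusters outside 100-1000 RFU excluded.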
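Note: ATP exposure 15 min at 22 °C before imaging.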

For AGGTGTGTAG, the switch fluorescence ratio came to 0.99 ± 0.032. Next, TAAATAGTAC: 1.07 ± 0.032.

On to GGGGGAGGGA, for which the switch fluorescence ratio amounted to 0.997 ± 0.04.

As for TTTCTGAGTT, the switch fluorescence ratio worked out at 1.01 ± 0.032.

Turning to ATGATAGAGA, the switch fluorescence ratio came out at 1.06 ± 0.021. As for GATTTGGAGG, the figure is 0.97361 ± 7.9e-05; as for AATTAGTACG, 0.981 ± 0.052; as for AATCAGAGTG, 1.01 ± 0.03. TGAAGTTTGC: the switch fluorescence ratio is 0.999 ± 0.01. Consider AACCAGAGTA, for which the switch fluorescence ratio stood at 1.011 ± 0.0039.

Take AGTGGTATAG: the switch fluorescence ratio worked out at 1.01 ± 0.034. For the sequence ACTGTAATTC, the switch fluorescence ratio turned out to be 1.19 ± 0.041. Next, AGAATGTCGA: 0.968 ± 0.068; AAGTATCCGT: 0.986 ± 0.048.

In the case of GGGGTATTGG, the switch fluorescence ratio came to 0.993 ± 0.035. As to TGCGCAATTT, the switch fluorescence ratio turned out to be 1.205 ± 0.0054. Regarding TCGAGGGCGA, the switch fluorescence ratio is 1.146 ± 0.0097. In the case of ACGAGCCTAG, the switch fluorescence ratio worked out at 1.33 ± 0.058. TGGTTAACTG: the switch fluorescence ratio is 1.13 ± 0.16. As for GCCCATGAGT, the switch fluorescence ratio turned out to be 1.01 ± 0.011. As to GCTGTTGTCG, the switch fluorescence ratio was 0.974 ± 0.052.

AGAGGGGTAA: the switch fluorescence ratio was found to be 0.998 ± 0.029.

Turning to TCGTATTGGT, the switch fluorescence ratio stood at 1.02 ± 0.023. For GTATGAAGAG, the switch fluorescence ratio amounted to 0.995 ± 0.023. Next, TTACATGTTG: 1.04 ± 0.04; TCAAAGCCCT: 1.03 ± 0.03; GAATTCCAGT: 0.9968 ± 0.0076. Consider ACTGGTTATT, for which the switch fluorescence ratio amounted to 1 ± 0.016.

For CCATTTGTGT, the switch fluorescence ratio amounted to 0.976 ± 0.023.

On to TTAGGATG, for which the switch fluorescence ratio came to 1.01 ± 0.0092. On to AATAATCTTT, for which the switch fluorescence ratio was 1.02 ± 0.013.

On to TTTGATTGCA, for which the switch fluorescence ratio was 1.03 ± 0.068. Next, CCAAATTTAA: 1.03 ± 0.01; ACGTTTGAGG: 0.988 ± 0.014; ATCATTAGGG: 0.976 ± 0.032. Regarding TGAGGGGCGG, the switch fluorescence ratio was found to be 0.998 ± 0.039. For CATGGGTGGG, the switch fluorescence ratio stood at 0.994 ± 0.028. As for TACAGAATGT, the switch fluorescence ratio is 1.03 ± 0.023. As for ATTCTCGTGG, the switch fluorescence ratio stood at 0.997 ± 0.036.

As for CGTGCTTTCT, the switch fluorescence ratio was found to be 0.999 ± 0.029.

On to CGAGTAGTGC, for which the switch fluorescence ratio was 1.12 ± 0.033. Take AATTGTATGG: the switch fluorescence ratio turned out to be 1.04 ± 0.044. GCAATTGTTG: the switch fluorescence ratio is 1.021 ± 0.01. As for GGGCCTTGAG, the figure is 1.031 ± 0.008; as for CATAGTTCGT, 0.988 ± 0.016; as for GGATTGAATG, 0.972 ± 0.025.

Consider TATAGATGTG, for which the switch fluorescence ratio turned out to be 1.013 ± 0.0024. As for CAGATAATAT, the figure is 1.04 ± 0.022. In the case of TCTTTTCAGC, the switch fluorescence ratio is 0.992 ± 0.045. On to GCAAGCTAGG, for which the switch fluorescence ratio was found to be 1.03 ± 0.017. Next, GATGTTGCCG: 1.05 ± 0.057. For TAGGAATGGG, the switch fluorescence ratio worked out at 0.989 ± 0.034. For GCTTGCCGGT, the switch fluorescence ratio is 1 ± 0.037. Next, GCCGGTGGAT: 0.9793 ± 0.0084; AATTACTGG: 1 ± 0.031. Next, AAGGGTCGCG: 1.02 ± 0.055; CAGATAGTGT: 1.018 ± 0.002.

Regarding TCAGAGACCC, the switch fluorescence ratio is 1.006 ± 0.009. As to TGGGATGGAA, the switch fluorescence ratio came to 1.004 ± 0.0031. Consider TCATATTGAT, for which the switch fluorescence ratio turned out to be 0.984 ± 0.051. GGTTGGAATG: the switch fluorescence ratio turned out to be 1.08 ± 0.18. Turning to CGGGCTCAAC, the switch fluorescence ratio is 1.033 ± 0.0071. Consider GCAAGATTGA, for which the switch fluorescence ratio was 0.999 ± 0.044. As to CGGGGTTGCC, the switch fluorescence ratio worked out at 0.955 ± 0.022.

With ATCTGTTGTC, the switch fluorescence ratio worked out at 1.06 ± 0.021. As for TAAACGGGGT, the switch fluorescence ratio was found to be 1.03 ± 0.032. As for ATGGTCGCGG, the figure is 0.985 ± 0.035. For GATGATGGCG, the switch fluorescence ratio is 1.05 ± 0.073. Next, AGGACGTTTT: 0.962 ± 0.01; GCAGTATTTT: 1.0075 ± 0.00081; ACGGTTGAG: 0.96 ± 0.036. Consider TTTTCCCCGT, for which the switch fluorescence ratio is 1.38 ± 0.56. For TTTTGATTCC, the switch fluorescence ratio came out at 1.036 ± 0.009. ATTTCTCTTG: the switch fluorescence ratio is 0.998 ± 0.025.

Turning to AAATCTGGGT, the switch fluorescence ratio was 0.97 ± 0.013. Turning to GCCGGTCTGT, the switch fluorescence ratio was determined as 1.01 ± 0.03. Take TAAGGGGGTA: the switch fluorescence ratio was found to be 0.992 ± 0.039. As for GAGCCCGCAG, the figure is 1.6 ± 0.038; as for TGGAACCGGA, 1.02 ± 0.011; as for AAATTGCTAG, 0.997 ± 0.032. With TGCTTTAGGG, the switch fluorescence ratio is 0.965 ± 0.029.

For the sequence TTCGTTTAGT, the switch fluorescence ratio stood at 1.039 ± 0.0026. Take CTGGCGAGGG: the switch fluorescence ratio amounted to 1.01 ± 0.026. For the sequence TTTGCCGAGT, the switch fluorescence ratio stood at 0.996 ± 0.044.

Regarding GGGGGGGCAG, the switch fluorescence ratio came out at 0.986 ± 0.017. As for CTTTAGCCGG, the figure is 1.02 ± 0.049; as for GATAGAAGTA, 0.9733 ± 0.0057; as for TGCGGGTGGG, 1.03 ± 0.026. For TACTATTTGT, the switch fluorescence ratio was 1.04 ± 0.063. Next, TTTGGTGGGA: 0.972 ± 0.026; CGGGCAGAGG: 0.993 ± 0.01; GCTTTGGAAG: 0.985 ± 0.034.

With TAAGGGTGCC, the switch fluorescence ratio was found to be 1.01 ± 0.03. Next, GTTGGCTATT: 0.984 ± 0.007; GGGGCGTACG: 1.05 ± 0.2; GCTTTTAAGT: 0.99809 ± 0.00068.

Take CCTTTGGGTC: the switch fluorescence ratio amounted to 0.98 ± 0.014. Next, AAGGTATTAA: 1 ± 0.036. With CGTGGATGGT, the switch fluorescence ratio stood at 0.9933 ± 0.0032. Consider CAGACGTTTT, for which the switch fluorescence ratio came out at 0.9917 ± 0.0094.

For the sequence GCCTTCATGG, the switch fluorescence ratio stood at 0.98 ± 0.044. Turning to CTTAGTTGGT, the switch fluorescence ratio came out at 0.965 ± 0.012.

For the sequence CATGAATTGT, the switch fluorescence ratio worked out at 0.974 ± 0.019. Consider ATATTAGATT, for which the switch fluorescence ratio came to 1.019 ± 0.0076. Take TCGGGATACG: the switch fluorescence ratio stood at 1.14 ± 0.021. As for GGAGGGAGTG, the figure is 0.98 ± 0.025. As for AGATATCCGC, the figure is 1.15 ± 0.05.

With TTCTGTGGAA, the switch fluorescence ratio amounted to 1.04 ± 0.036.

For the sequence GATTTTTAGT, the switch fluorescence ratio amounted to 1.002 ± 0.0016. As for AAAGTAGCCT, the switch fluorescence ratio worked out at 1.08 ± 0.057. As for ACTCTGGTCA, the figure is 0.986 ± 0.027; as for GGGGTTATAG, 1.04 ± 0.12; as for GGTTTCGATG, 1 ± 0.023. On to TCCAAGTGTG, for which the switch fluorescence ratio amounted to 1.03 ± 0.021. Consider CAAAAAACCT, for which the switch fluorescence ratio was determined as 1.55 ± 0.55. On to TTTGCCCAGA, for which the switch fluorescence ratio stood at 1.02 ± 0.041. Turning to ATTGCATTAA, the switch fluorescence ratio was found to be 0.985 ± 0.033. Turning to TCCGTGTCTA, the switch fluorescence ratio was 1.07 ± 0.022. Turning to ACCAATGTTC, the switch fluorescence ratio is 1.03 ± 0.033. GAGGGTCATC: the switch fluorescence ratio came out at 0.935 ± 0.056.
